Results taken from the nanobody polyreactivity screen of Harvey et al. (2022).

assay: yeast display, Sf9 membrane polyspecificity reagent, FACS + sequencing; frameworks hold sequencing errors
Summary of the method: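 In a synthetic yeast display library (Saccharomyces cerevisiae BJ5465), nanobody expression was induced with galactose for 36–48 hours. FACS gates were set low and high (top ~1%) using anti-HA fluorescence for expression and streptavidin fluorescence for binding of the Sf9 membrane reagent. Each polyreactivity label is drawn from the gate of origin.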

Sequence	polyreactivity (PSR sort gate)
QVQLVESGGGLVQAGGSLSLSWAASGSTFFNNAMGWYRQAPGKERELVAGISYGCGRTYYADSVKGRFTISRDNAKNTVFLQMNSLKPEDTAVYYCNTVTSPAPYYSYDRYYWGQGTQVTVSS	high polyreactivity
QVQLVESGGGLVQAGGSLTLICAASGRTLYLNAMGWYRQAPRKERELVAISSGGSTYYADSVKGRFTISRDNAKNTVYLQMNSLKPEVTAVYYCNADEHYHFCYVFWYAYDYWGQGTQVTVSS	low polyreactivity
QVQLVESGGGLVQAGGSNRLSCADSGLIFGFNTMGSYRQAPAKEREMVAVISSSGGSTYYADSVKARFTISRDNAKKTVYFQMNSLKPEDTAVYYSAARAYPVRYRRRDYWGQGTQVTVSS	high polyreactivity
QVQLVESGGGLVQAGGSQRLSCAASGRIFPGNAMGWYRQAPGKERELVAAIRWSGGSTYYADSVKGRFTISRDNAKNTVYLQMNSLKPEDTAVFYCAKDRGSVFKRKYYYWGQGTQVTVSS	low polyreactivity
QVQLVESGGGLVQAGGSRRLCCAASGITLPVYGMGWYIQAPGKERELVAVIDIVGITNYADSVKGRFPISRDNAKNTVYLMMNSLKPEDTAVYYCAKRYVYIADGGEYYYLGQGTQVTVSS	low polyreactivity
QVQLVESGGGLVQAGGSRRLRCAASGRTFWTYAMGWYRQAPGKEREFVAAISYSGSSTYADSVKGRFTISRDNATNTVYLQMKSLKPEDTAVYFCAAYLYTAVVAYGYVSWGQGTQVTVSS	low polyreactivity
QVQLVESGGGLVQAGGSRRLRCAASGSIISSYALGWYRQAPGQEMEFVAAISTGGRTYYADSVKGRFTISRDNGKNTVYLQMNSLKPEDTAVYYCAADGPLPHKVGTHTLDYWGQGTQVTVSS	low polyreactivity
QVQLVESGGGLVQAGGSRRLSCAASGFTFLAYALGWYRQAPGKERELVAAISWDGGSTYYADSVKGRFTISRDNAKNTVYLQMNSLKPEDTAVYYCNRRSRRQGGYWGQGTQVTVSS	high polyreactivity
QVQLVESGGGLVQAGGSRRLSCAASGFTFQDYAMGWYRQAPGKERELVAAISKSGGRTYYADSVKRRFTISRDNAKKTVYLEMNSLKPEETAVYYCAALPLYSQDYDYWGPGTQVTVSS	high polyreactivity
QVQLVESGGGLVQAGGSRRLSCAASGGTFVSYAMGWYIQAPGKERELVADITYSGGSTYYADSVKGRFTISRDNAKNTVYLQMNSLKPEDTAVYYCAADLGRNLLHTYYYWGQGTQVTVSS	low polyreactivity
QVQLVESGGGLVQAGGSRRLSCAASGISFGSYVMGWYRQAPGKERELVAAISWSGGSTNYADSVKGRFTISRDNSKNTVYLQMNILKPEDTAVFYCAAEYDVYGYYYWGQGTQVTVSS	high polyreactivity
QVQLVESGGGLVQAGGSRRLSCAASGRTFIVYAMGWYRQAPGKERELVARISSGSRTSYADSVKGRFTISRDNAKNTVYLQMNSLKPEDTAVYYCAKSRVIKYEFDYWGQGTQVTVSS	low polyreactivity
QVQLVESGGGLVQAGGSRRLSCAASGRTFQYYAMGCYRQAPGKERELVASITYNGDITYYADSVKGRFTISRDNAKNTVYLQMNSLKPEDTAVYYCAATKFSDFGYQAVIGYGYWGQGTQVTVSS	low polyreactivity
QVQLVESGGGLVQAGGSRRLSCAASGRTIGVYAMGWYRQAPGKERELVAAFSWSGGTTYYADSVKGRFTISCDNAMNTVYLQLNSLKPEDNAVYYCAADSFTEVDYWGQGTQVTVSS	low polyreactivity
QVQLVESGGGLVQAGGSRRLSCAASGSIFTSNAMGWYRQAPGNERDLVAVITGSTGRTHYADSVKGRFTISRDNAMNTVYLQMNSLKPEDTAVYYFSAGLTFVTNFDYWGQGTHVTVSS	low polyreactivity
QVQLVESGGGLVQAGGSRRLSCAASGSIFVSNAMGWDRQAPGKERELVAAISGGCSTYYADSVKGRFTISRDNAKNTVYLQMNSLKPEDTAVYYCNALFDGYAQDLDYDYWGQGTQVTVSS	low polyreactivity
QVQLVESGGGLVQAGGSRRLSCAASGSTFAYYAMGWYRQAPGKERELVAAISWRGGSTYYADSVKGRFTISRDNAKNTVYLQMNSLKPEDTAVYYCATLSAWKASSYDYWGQGTQVTVSS	high polyreactivity
QVQLVESGGGLVQAGGSRRLSCAASGSTFGWYVMGWYRPAPGKDREFVAAIDNSGGDTYYADSLKGRFTISRDTAKNTVYLQMNSLKPEDTAVYYCDDEAYTRASFENDYWGQGTQVTVSS	low polyreactivity
QVQLVESGGGLVQAGGSRRLSCAASGSTFQYNAMGWYRQAPGKDREWVAAITGSGGSTYYADSVKGRFTISRDNSKNTVYLQMNSLKPEDTAVYYCAKRVRSFNWVLARHKYDYWGQGTQVTVSS	low polyreactivity
QVQLVESGGGLVQAGGSVRLSCAASGLIFGGYTMGWYRQAPGKDRELVAAIDSADSTYYADSVKGRFTISRDNAKNTVYLQMNSLKPEDTAVYYCATYWYYSGPAYSLRETGGVNYWGQGTQVTVSS	low polyreactivity
QVQLVESGGGLVQAGGSVRLSCAASGSTIPPKVMGWYREAPGKEREWVAAISWGGSSTYYADSVKGRFPISRDHAKNTVFVQKNCLQREETAVYYCNAEYRSPVYWWYYEYDYWGQGTQVTVSA	high polyreactivity
QVQLVESGGGLVQAGGSVSLSCAASGTFSPYAMGWYRQAPGKERELVADITSNTGRTYADSVKGRFTISRDNAKNTVYLKMNSLKPEDTSVYYCNTYGSGTHSSGYDYWGQGTQVTVSS	low polyreactivity
QVQLVESGGGLVQAGGTLGLSCAASGFIITQYAMGRYRQAPGKERELVAAISGNGGRTYYADSVKGRFTISRDNAKNTVYLQLNSLKPEDTAVYYCAVTRPGRRYPFGYDYWGQGTQVTVSS	high polyreactivity
QVQLVESGGGLVQAGGTLPLSCAASGFTVRSYAMGWYRQAPGEEREIVAAISRLGDSTYFADSVKGRFTISRDNAKNTVYLQMYSLITEDTAVYYCAKYGIASRFSRFDSWGQGTQVTVSS	high polyreactivity
QVQLVESGGGLVQAGGTLRLICADSGFTFPVYAMGWSRQAPGKERQLVAAITRSGGRTYYADSVKGRFRISRDNAKNTVYLQMNSLKPEDTAFYYCNADYPYGPGSRVRYDYWGQGTQVTVSS	high polyreactivity
QVQLVESGGGLVQAGGTLRLRCAASGSTFFPYAIGWYRPAPGKEWELVAAITSGGRTHYADSVKGRFTISRDNAKNTVYLQMMSLIPEDSAVYYCAAVVPRHLLTYRMDYWGQGNQVTVSS	high polyreactivity
QVQLVESGGGLVQAGGTLRLRCAPSGSIFWGNAIGWYRQAPGKERELVAAIDWSGGSTYYADSVKGRFTISRDNAKNTVYLLMYSLKPEDTAVYFCAASGRYDYDYWGQGTQVTVSS	low polyreactivity
QVQLVESGGGLVQAGGTLRLSCAASGFIFCTYAMGWSRQAPGKERELVAAISSRDVSTYYADSVKGRFTISRDNAKNTVYLQMNSLKPEDTAVYYCAAEDPYYYPYEYWGQGTQVTVSS	high polyreactivity
QVQLVESGGGLVQAGGTLRLSCAASGFIFTGYTMGWYRQAPGKERELVARISSGDSTKYADSVKGRFTISRDNAKNTVYLQMNSLKPEDTAVYYCNKRHGTYGSVYYSREGYWGQGTQVTVSS	high polyreactivity
QVQLVESGGGLVQAGGTLRLSCAASGFNFASYAMGWYRQAPGKERELVDAITSDGSTNYADSVKGRFTISRDNAKNTVYLQMNSLKPEDTAVYYCAADPAKKYDQNTEYEYWGQGTQVTLSS	low polyreactivity
